Test results published in the supplement of paper PMC9170038.

What follows are sequences tested on MS2 coat protein (assay: apparent KD of MS2 coat protein; higher = weaker reporter binding). Conditions: Eterna round: R107; input ligand: arginine 13.2 mM.
Summary of the method: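 Designed RNA switches were made by on-chip transcription from Illumina sequencing clusters and then titrated with SNAP-549-labelled MS2 coat protein. Twofold steps ran from 0.7 or 1.5 nM to 3 µM, each lasting 0.8–1.5 h early and 10–20 min late, in 100 mM Tris-HCl pH 7.5, 80 mM KCl, 4 mM MgCl2, without or with constant ligand. Apparent KD is the per-design median of normalised cluster binding-curve fits.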

Row | Sequence | apparent KD of MS2 coat protein [nM]
1 | UUAAUCUUUAUUGAAAACAAUAAAGCAGAAGGAGCGUGAUAAAACACAGGUAGGUCGCUGAAGGGAACAUGAGGAUCACCCAUGU [AstrosSSArgA#13] | 36.4
2 | ACAUGAGGAUCACCCAUGUACAUAAGGGAAGGAGCGCGGUGAGACGCAGGUAGGUCGCCCAUAAUAACAAACAUUAAAUUCAUGU [#25 Same State - Arginine A] | 17.2
3 | UCUUACUAUAGUGAUACCAGACGUACAUGAGGAUCACCCAUGUUACAUUCUUGGUUAAAAGUCCCUUGGCAGCACGAUUUGUUCG [JR_Nu_ExcTheophyB_Sub026] | 9.88
4 | AACAUGAGGAUCACCCAUGUGUCCCUUGAUACCAGUCCCAUGUGAGACCCUUGGCAGCAAACAUGAGGAUCACCCAUGUCCCAUG [Same State Theophylline A 3] | 60.9
5 | AAAGGCGGGCAGGAUACCAGCGCUAACAUGAGGAUCACCCAUGUACAAAUAAUAACAUGGUGCCCUUGGCAGCCUGGGCGUCUGC [Usedlati] | 26.6
6 | UAUAUAUAUCACUAACUGUUCUUGAGGUCUCGAGGACCGGUACGGCCGCCACUCGUGCCGCCUCACAUGAGGAUCACCCAUGUCC [XTryp A #2] | 55.3
7 | UCGUAGCUAGGAAGGAGCGCAUACUUCACAUGAGGAUCACCCAUGUCGAGACGUGAGUCAGUGCAGGUAGGUCGCCUAGCUAUGA [Same State - Arginine B (Freestyle 26)] | 18.2
8 | AUGUCGUUGAAUACAGCGGCAUGGAGUGAUACCAGAAUGAUCAAAUUCCCUUGGCAGCAUGACAUGAGGAUCACCCAUGUUCGAU [SSTheo A #15] | 34.3
9 | AGCUCAUAGAGUGAUACCAGACUACAUGAGGAUCACCCAUGUUUCUUUUGGUUAUCAUGUGUCCCUUGGCAGCACAAGAAGAGCA [JR_ExcTheophyB_Sub015] | 13.4
10 | AGACAUGAGGAUCACCCAUGUAGUAUGGAUACCAGAUCCAGAUUUAUCCCUUGGCAGCUGUGGUACAGCGUUGCAACGCUCCUAG [Exclusion - Theophylline A (Freestyle 14)] | 30.4
11 | UGUCUAGUAAUCGAUACCAGCUACAUGAGGAUCACCCAUGUAGUUCGAACGGCCGCAUGUAGCCCUUGGCAGCGAAUAGUUACAU [Onbitelege] | 14.2
12 | GGACUAACCAGAAGGAGCGACACGCAGAAACUGCUAUUUCCUCCGCACGAGGAUCACCCGUGUCAGGUAGGUCGCUGGUUAGUCG [ArgBX 28] | 22.1
13 | GAUGAUAUUGCAGAUACCAGACACAUGAGGAUCACCCAUGUCGCUGGGUCGCUGGGUCGUGUCCCUUGGCAGCUGCGAUAUCAUC [Tibet] | 16.3
14 | AGCUCGCAUCCUCUAGCGUCAAAGACGCGUCGAGGACCGGUACGGCCGCCACUCGACUUGAGGAUCACCCAGGUCAAAGCGAGCA [TrypAX 13 #SwitchBubble #AlternativeMS2 #MS2Late #CuTurnoff] | 148
15 | AUUAAUAGUUGUGAUACCAGACGAACAUGAGGAUCACCCAUGUAACUUUUAGGUGUUGUAGUCCCUUGGCAGCACUAUGUAGUUA [JR_SSTheophyB_Sub013] | 31.1
16 | GGCAGUCAUAGCAGGGCAAAUAUACUCGAAGGAGCGUCAUAGUAGGCAGGUAGGUCGCGAGACAUGAGGAUCACCCAUGUAGAGA [uuumullin] | 26.1
17 | AACAUACAUGAGGAUCACCCAUGUCACGAUACCAGAUACAUGAGGAUCCCUUGGCAGCGUCAUGAGGAUCACCCAUGUUGUACAU [Exclusion Theophylline A 2] | 20.3
18 | ACAUGAGGAUCACCCAUGUACAUGAGGGAAGGAGCGGUACAUGUGCCAGGUAGGUCGCCCAACAGCAUCAGCCAUGUACAUCAGC [ppsmullin] | 38.1

Row | Sequence | apparent KD of MS2 coat protein [nM]
19 | AGAGUCAGACAAAAGUCUGGCUCAGCCGAAGGAGCGUCCGAAAGGACAGGUAGGUCGCGGUUACCUGAGGAUCACCCAGGUUCCU [ArgAS 24 #OpenEnded #AlternativeMS2] | 53.8
20 | CACUAUGAGGUCGAUACCAGUACUGAGUUGUACAUGAGGAUCACCCAUGUAAAUGUUCGCUACCCUUGGCAGCGAUAACAUUGCA [theeternabot_sameState_MS2_Theo_B_34] | 73.8
21 | GCUGCCAUACGAAGGAGCGCUGGUGUAAUGAGGCGAACAUGAGGAUCACCCAUGUGGCAUAAGCAGGUAGGUCGCGUAUGGCAGC [EAB #16] | 16.6
22 | AAACAUGAGGAUCACCCAUGUAUACUUAGACGAGGACCGGUACGGCCGCCACUCGAACUUCAAGAUUUGGCGGAAAAUGUAUGUA [JR_ExcTryptoA_Sub022] | 9.71
23 | AAGCUGACAAGAAGGUGUUCCUAAGCUGAUACCAGCCUGGAAACAGGCCCUUGGCAGCAGCACAUGAGGAUCACCCAUGUAAUAA [(T)'-(M)'-(T1)-(T2)-(M1)-(M2)_Design2(Mismatches)] | 101
24 | AAACGUUGCUGCGAUACCAGACAUGAGGAUCACCCAUGUACCAAGGUAACCGAAAGGCAUGUCCCUUGGCAGCGCAGCAACGAAA [MAT - Exclusion Theophlline B - Mod of Eli - D17] | 14.8
25 | UAUAGUGUGAUGGAUACCAGCAGAGAAAACGUUUAUCCUAACAUGAGGAUCACCCAUGUAUGCCCUUGGCAGCUGUUGUGUUAUA [8.O] | 28.9
26 | GAGUAGUAGACGGCCGCCACUAAACAUGAGGAUCACCCAUGUAGUGAUCCGUUACCUAGCGUAGAUAGGACCGGGUCAGAUAGUA [Exclusion Tryptophan B GF 14] | 21.6
27 | GACGGUACGUCGGCAAAGCCGAUGUGCCAGCGAGGACCGGUACGGCCGCCACUCGUACAUGAGGAUCACCCAUGUCCGGUCCGUC [Omei Trp SS A C v3] | 51.7
28 | AAUAAUAGGUGAUCUUGAGUCGUACCGUAACGAGGACCGGUACGGCCGCCACUCGAACAUGAGGAUCACCCAUGUAUGUAUGAUA [whbob_SS_trypto A_f6] | 48.6
29 | CGUGCUAGGGCGGCCGCCACUGUGGCUACGGUACAUGAGGAUCACCCAUGUUUGUGGUUGAUCUACAGGACCGGGCCCUGGCACG [Radiaerdi] | 131
30 | GCUUCACAUGAGGAUCACCCAUGUCCGGAUACCAGCUCUCCAGACAGCCCUUGGCAGCCGAGCGCCCGAUUAUAUACCCUAGGAG [theeternabot_sameState_MS2_Theo_A_28] | 21.1
31 | AAGCAGGGUGUAAAAUAAAUAAUCACUGAUACCAGACUAUGAGAUGUCCCUUGGCAGCAGAAACAUGAGGAUCACCCAUGUAAUA [JR_Nu_ExcTheophyA_Sub029] | 21.1
32 | UGUCGUAGACAUGAGGAUCACCCAUGUCCACGAGGACCGGUACGGCCGCCACUCGGGAUAUAAACCGUUACGGGUGGGUGGUGUU [Maarlainin] | 16
33 | AGAGUUAGACAAAAGUCUAGCUCACCAGAAGGAGCGUCCGAAAGGACAGGUAGGUCGCUGGUGCACGAGGAUCACCCGUGUUCCU [ArgAS 21 #OpenEnded #AlternativeMS2] | 57.9
34 | GCAGUGGGUUAUAAGUAAUAGAAUUCUGAAGGAGCGUGAUGAAACACAGGUAGGUCGCAGGAACAUGAGGAUCACCCAUGUACGG [Same State Arginine A GF20] | 61.4
35 | GCGCUAUUUAUUGAUACCAGAUACAGGAAUCACAUGAGGAUCACCCAUGUGGAAUGAAGGAUCCCUUGGCAGCAAUAGUCAAAAU [theeternabot_sameState_MS2_Theo_B_9] | 16.6
36 | GGCACCAGGCGAAGGAGCGUGAAGACAUGAGGAUCACCCAUGUAGAGGCCCGGACAGGGUUCGCAGGUAGGUCGCGCCUGGUGCC [#1 Same State - Arginine B Attempt #9 (HarryS)] | 22.9
